Laboratory results as given in US20060102935A1, “Transistor-based biosensors having gate electrodes coated with receptor molecules” (priority 2002, published 2006).

Legend:
[1] = molecular target: T1, acetylcholine esterase (AChE) (Electrophorus electricus, UniProt O42275); assay: AChE-ISFET (AChE-FET) response to substrate and inhibitor in PBS; type: biochemical, electric eel; details: dissolved in PBS, in comparison to ACh
T1 construct: purchased Sigma C1682
Description: In this experiment, the ISFET has undergone covalent bonding with acetylcholine-esterase using the aforementioned cyanuryl chloride techniques. As shown in the figure, the response of the ACHE-ISFET to various doses of acetylcholine (graph I). Acetylcholine was manually applied into a solution of 5 ml Phosphate Saline Buffer (PBS) in which the ISFET resided.
Both carbamylcholine and acetylcholine have been dissolved in phosphate buffered saline (PBS).
Acetylcholine esterase (C1682, taken from electric eel), acetylcholine-iodine, acetylcholine-chloride, cyanuric chloride and eserine (physostigmine), ere purchased from Sigma and were used as supplied.
ISFETs were first rinsed with isopropanol and dried under Argon. A is solution of 0.1M cyanuric chloride (in dichloromethane) was prepared and then applied to the Al2O3 gate surface of the ISFET. ISFETs were then dried with Argon and heated at 70° C. for 15 minutes, then rinsed again with dichloromethane and dried under Argon. […]
The resulting hybrid system of Example 3, was immersed in a PBS solution as a background electrolyte for the measurements. […] The current between source and drain electrodes (Ids) was measured, while potential between drain and source electrodes (Vds), and between the gate and source electrodes (Vgs) were kept constant at 0.1V and 0.45V, respectively, recording the electrical activity occurring at the gate surface.

CC(=O)OCC[N+](C)(C)C = assay: purified protein, by the assay type; details: other: surface-bound AChE, Lineweaver-Burk plot, DTNB 5×10^−5 M
Description: In this test, the enzyme activity is measured by following the increase of yellow color produced from the reaction of thiocholine with the DTNB ion (Sawada, O., Ishida, T., Kihachiro, H., J. Biochem., 129, 2001, 899-907).
The reaction of acetylthiocholine-iodide with DTNB (5,5′-dithio-bis (2-nitrobenzoic acid) marker was conducted by immersing the solid substrate containing the immobilized ACHE, obtained above, in an optical cell compatible with the spectrophotometer. The rate of color production was measure at 410 nm. All of the investigated solutions were freshly prepared: ACh in phosphate buffer of pH=8.0 and the DTNB dissolved in PBS buffer of pH=6.5.
The enzyme activity was probed by two methods: Ex-situ and In-situ experiments. In the Ex-situ experiments the solution of the marker containing ACh is measured before and after the exposure to the immobilized ACHE substrate. The optical cell contains a solution composed of 2 ml of 2.5.10^−3 M ACh and 2 ml of 1.10^−4 M DTNB. The optical spectra were recorded before and after 15 min of the immobilized enzyme solution insertion to this optical cell. In the In-situ experiments, the substrate is immersed in the optical cell containing various concentrations of the DTNB/ACh solution. The hydrolysis product was followed in two ways: (a) by recording the spectra in fixed time interval and (b) by the time course mode at 410 nm. […]

T1 sequence (O42275 24-633): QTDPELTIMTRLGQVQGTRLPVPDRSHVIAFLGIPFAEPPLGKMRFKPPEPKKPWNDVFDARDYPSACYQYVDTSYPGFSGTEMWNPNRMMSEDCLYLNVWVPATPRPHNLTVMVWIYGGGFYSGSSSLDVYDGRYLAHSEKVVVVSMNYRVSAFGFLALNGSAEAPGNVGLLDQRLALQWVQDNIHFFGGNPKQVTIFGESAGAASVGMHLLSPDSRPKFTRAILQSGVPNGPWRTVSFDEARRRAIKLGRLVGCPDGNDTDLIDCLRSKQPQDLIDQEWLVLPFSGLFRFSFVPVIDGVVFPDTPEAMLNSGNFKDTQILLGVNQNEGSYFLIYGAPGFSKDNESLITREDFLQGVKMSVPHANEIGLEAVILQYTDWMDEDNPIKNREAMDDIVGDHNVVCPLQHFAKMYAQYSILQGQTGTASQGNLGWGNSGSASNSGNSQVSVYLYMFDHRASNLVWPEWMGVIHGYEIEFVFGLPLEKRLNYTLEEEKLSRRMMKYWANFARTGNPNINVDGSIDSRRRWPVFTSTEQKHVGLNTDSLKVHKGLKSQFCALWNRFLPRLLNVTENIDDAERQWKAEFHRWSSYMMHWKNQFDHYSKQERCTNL

Molecule: C[N+](C)(C)CCOC(N)=O.[Cl-] [Carbamylcholine]
- response of AChE-ISFET on application to the solution [1]: no response

Molecule: surface-bound AChE (Electrophorus electricus)
- Km (CC(=O)OCC[N+](C)(C)C): 310 µM
- Vmax (CC(=O)OCC[N+](C)(C)C): 1e-07 M/s
